# Values joined by “and” are separate entries in the source; they are usually repeats but may differ in a detail not shown here. Equal values may be shown once.
# Columns and labels:
# [1] = biological target: nesfatin-3 from Gallus gallus (Gallus gallus); assay: AUC; sedimentation velocity, c(s) analysis; 0.5, 0.75 and 1.0 mg/ml protein in 20 mM Tris pH 7.5, 150 mM NaCl, 5 mM EDTA (apo form); 20 °C, 50 000 rpm; monomer-dimer
# [2] = biological target: nesfatin-3 from Gallus gallus (Gallus gallus); assay: AUC; sedimentation velocity, c(s) analysis; 0.5, 0.75 and 1.0 mg/ml protein in 20 mM Tris pH 7.5, 150 mM NaCl, 800 µM ZnCl2; 20 °C, 50 000 rpm; monomer-dimer(-tetramer)
# [3] = biological target: nesfatin-3 from Gallus gallus (Gallus gallus); assay: AUC; sedimentation velocity, c(s) analysis; 0.5, 0.75 and 1.0 mg/ml protein in 20 mM Tris pH 7.5, 150 mM NaCl, 100 µM ZnCl2; 20 °C, 50 000 rpm; monomer-dimer(-tetramer)
# [4] = biological target: nesfatin-3 from Gallus gallus (Gallus gallus); assay: AUC; sedimentation velocity, c(s) analysis; 0.5, 0.75 and 1.0 mg/ml protein in 20 mM Tris pH 7.5, 150 mM NaCl, 300 µM ZnCl2; 20 °C, 50 000 rpm; monomer-dimer
# [5] = biological target: nesfatin-3 from Gallus gallus (Gallus gallus); assay: AUC; sedimentation velocity, c(s) analysis; 0.5, 0.75 and 1.0 mg/ml protein in 20 mM Tris pH 7.5, 150 mM NaCl, 10 mM CaCl2; 20 °C, 50 000 rpm; monomer-dimer
# [6] = biological target: nesfatin-3 from Gallus gallus (Gallus gallus); assay: AUC; sedimentation velocity, c(s) analysis; 0.5, 0.75 and 1.0 mg/ml protein in 20 mM Tris pH 7.5, 150 mM NaCl, 10 mM MgCl2; 20 °C, 50 000 rpm; monomer-dimer
# [7] = biological target: the molecule itself; assay: AUC; sedimentation velocity, c(s) analysis; 0.5, 0.75 and 1.0 mg/ml protein in 20 mM Tris pH 7.5, 150 mM NaCl, 5 mM EDTA (apo form); 20 °C, 50 000 rpm; monomer-dimer
# [8] = biological target: the molecule itself; assay: AUC; sedimentation velocity, c(s) analysis; 0.5, 0.75 and 1.0 mg/ml protein in 20 mM Tris pH 7.5, 150 mM NaCl, 10 mM MgCl2; 20 °C, 50 000 rpm; monomer-dimer
# [9] = biological target: the molecule itself; assay: AUC; sedimentation velocity, c(s) analysis; 0.5, 0.75 and 1.0 mg/ml protein in 20 mM Tris pH 7.5, 150 mM NaCl, 5 mM EDTA (apo form); 20 °C, 50 000 rpm; monomer-dimer; remark: listed apart in the source
percent dimer [1],stoichiometry N [1],percent dimer [2],percent dimer [3],percent dimer [4],percent dimer [5],dimer-to-monomer ratio (dimer:monomer) [6],percent dimer [6],Molecule,percent dimer [7] [%],percent dimer [8] [%],stoichiometry N [9]
75% and 76% and 77%,2,90% and 91% and 88%,74% and 80% and 79%,59% and 64% and 70%,76% and 77% and 74%,9,100% and 83% and 92%,nesfatin-3 from Gallus gallus (domain or fragment),,,
,,,,,,,,"nesfatin-3 from Homo sapiens (domain or fragment, UniProt P80303 190-420, looked up, also called hsNesfatin-3; apo-hsNesfatin-3; source: expressed from pQE-80L/HRV3C and purified as reported previously [16, 17]) EYLKTLNEEKRKEEESKFEEMKKKHENHPKVNHPGSKDQLKEVWEETDGLDPNDFDPKTFFKLHDVNSDGFLDEQELEALFTKELEKVYDPKNEEDDMVEMEEERLRMREHVMNEVDTNKDRLVTLEEFLKATEKKEFLEPDSWETLDQQQFFTEEELKEYENIIALQENELKKKADELQKQKEELQRQHDQLEAQKLEYHQVIQQMEQKKLQQGIPPSGPAGELKFEPHI",100,100,2
